Test results as given in paper PMC7488360 (Acta Pharmaceutica Sinica. B, 2020).

B1: AREVegf-a (ssRNA)
RNA: AAUUCUACAUACUAAAUCUCUCUCCUUUUUUAAUUUUAAUAUUUG

Tests used:
HuR (human antigen R) = HuR (human antigen R) (Homo sapiens, UniProt Q15717); test: SPR; assay type: binding
HuR full-length = HuR full-length (UniProt Q15717 1-326); test: EMSA
HuR RRM12 = HuR RRM12 (UniProt Q15717 18-186); test: EMSA
Sequence of HuR RRM12 (Q15717 18-186): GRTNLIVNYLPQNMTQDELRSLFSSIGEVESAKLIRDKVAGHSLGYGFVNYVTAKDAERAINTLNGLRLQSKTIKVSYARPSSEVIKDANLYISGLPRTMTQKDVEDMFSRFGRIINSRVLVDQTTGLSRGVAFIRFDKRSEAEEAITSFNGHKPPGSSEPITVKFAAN

Sequence of HuR full-length (Q15717 whole entry): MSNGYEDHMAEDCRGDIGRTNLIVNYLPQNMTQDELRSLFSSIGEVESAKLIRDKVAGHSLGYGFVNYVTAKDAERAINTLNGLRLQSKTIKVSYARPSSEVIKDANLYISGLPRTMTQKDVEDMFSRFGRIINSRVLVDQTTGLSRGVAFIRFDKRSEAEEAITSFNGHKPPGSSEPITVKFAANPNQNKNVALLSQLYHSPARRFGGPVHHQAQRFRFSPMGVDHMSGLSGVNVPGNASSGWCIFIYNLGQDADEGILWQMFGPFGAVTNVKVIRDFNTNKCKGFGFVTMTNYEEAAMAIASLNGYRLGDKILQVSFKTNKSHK
Sequence of HuR (human antigen R) (Q15717 18-186): as the sequence (Q15717 18-186) above

Row | Molecule | Kd (HuR (human antigen R)) | binding result (HuR full-length) | binding result (HuR RRM12)
1 | CC1=NN(c2ccc(C)c(C)c2)C(=O)/C1=N\Nc1cccc(-c2cccc(C(=O)O)c2)c1O [eltrombopag] | 2.5 µM |  | 
2 | B1 |  | binds | binds
